Measurements reported in article PMC8067585.

Biological target: CePoFUT1 single mutant M172C, singly labelled with ATTO488 or ATTO647N (Caenorhabditis elegans) (UniProt Q18014)
Test: single-molecule fluorescence coincidence (dual-colour PIE); CePoFUT1-A488 and CePoFUT1-A647N incubated 1:1 at 1 uM for 30 min in 10 mM Tris, 1 mM EDTA, 0.005% Tween 20, pH 8.5, diluted to 40 pM; substrates at 15-fold molar excess where added; monomer to dimer

## CePoFUT1 single mutant M172C, singly labelled with ATTO488 or ATTO647N (from UniProt Q18014 26-383) (enzyme)
  percent dimers (free form): 6.2%
  percent dimers (with GDP and HsEGF11-12-13): 4.6%
  percent dimers (with HsEGF11-12-13): 6.7%
  percent dimers (with HsEGF12): 6.8%
  percent of total protein in a dimeric state: 4 to 6%
  stoichiometry N: 2
